From patent US9657092B2, “S100A4 antibodies and therapeutic uses thereof” (LYKERA BIOMED SA, priority 2010, dated 2017)

System: MMP9 proteolytic activity induced by S100A4
Experiment: Gelatin zymography of HUVECs conditioned media
Assay type: cell-based, human
Details: 1-2 μM antibody with S100A4 1 μM, 24 h
Method: HUVECs were grown in EBM plus supplements (EGM) and 10% FCS, in 24-well culture plates. Before stimulation, cells were maintained 4 hours in EBM in the absence of serum or other supplements. Then, S100A4 (0.3-1-3 μM), in EBM were added to the culture to analyze their capacity to increase the secretion of active forms of matrix metalloproteinases (MMPs). […] After 24 hours at 37° C., supernatants were centrifuged to remove the debris. Then, 10 μL of Laemmli sample buffer without reducing agent (80 mM Tris-HCl pH 6.8, 4% SDS, 10% glycerol, 0.01% bromophenol blue) was added to 10 μl of each of the clear supernatants that were loaded without boiling in a 8% SDS-polyacrylamide gel copolymerized with Type A gelatine from porcine skin (Sigma) at a final concentration of 1 mg/mL. After electrophoresis, SDS was removed by washing the gel three times for 15 minutes with 2.5% Triton X-100 in H2O. […] Staining was performed for 1 hour at RT with 0.1% naphthol amido black (Sigma) in acetic acid, methanol and water at a proportion of 1:3:6 in volume. Then, gels were washed with destaining solution until clear bands were observed over a dark background. Bands were quantified using the NIH ImageJ imaging software.

B1: 5C3: mouse monoclonal anti-S100A4 antibody, IgG1, from hybridoma ECACC 10022401; VL SEQ ID NO: 1, VH SEQ ID NO: 2 (antibody, V domains shown)
VH: EAQLQQSGAELVKPGASVKLSCTASGFNIQETYMHWVKQRPEQGLEWIGRIDPANGNTKDDPKFQGKASITVDTSSNTAYLQLSSLTSEDTAVYYCASSYAMDYWGQGTSVTVSS
VL: DVLMTQTPLSLPVSLGDQASISCRSSQSIVHSNGNTYLEWYLQKTGQSPELLIYKVSNRLSGVPDRFSGSGSGTDFTLKISRVEAEDLGVYYCFQGSHVPFTFGSGTKLEIK
modifications: VH region of the 5C3 monoclonal antibody; VL region of the 5C3 monoclonal antibody
  activity of MMP9 in the media: completely reduced
